Measured values taken from the Human Domainome abundance scans (Beltran et al. 2025).
± gives the uncertainty stated by the source.

Assay: abundance fitness (aPCA) (normalised: wild type 0, dead -1); higher = more abundant; growth selection in yeast, the domain comes from the species named
Details: Homo sapiens

Q: For “NEDD4-like E3 ubiquitin-protein ligase WWP2 K484D, O00308”, which abundance fitness is on record?
A: Its abundance fitness is -0.028 ± 0.073.

Q: For “NEDD4-like E3 ubiquitin-protein ligase WWP2 K484E, O00308”, which abundance fitness is on record?
A: Its abundance fitness is -0.037 ± 0.061.

Q: Which abundance fitness does the source give for “NEDD4-like E3 ubiquitin-protein ligase WWP2 K484F, O00308” here?
A: The abundance fitness was -0.24 ± 0.073.

Q: With “NEDD4-like E3 ubiquitin-protein ligase WWP2 K484H, O00308” as the substance, how does the abundance fitness read?
A: The abundance fitness was -0.192 ± 0.081.

Q: For “NEDD4-like E3 ubiquitin-protein ligase WWP2 K484I, O00308”, which abundance fitness is on record?
A: The abundance fitness was -0.157 ± 0.064.

Q: Which abundance fitness does the source give for “NEDD4-like E3 ubiquitin-protein ligase WWP2 K484L, O00308” here?
A: Its abundance fitness is -0.064 ± 0.03.

Q: With “NEDD4-like E3 ubiquitin-protein ligase WWP2 K484M, O00308” as the substance, how does the abundance fitness read?
A: Its abundance fitness is 0.044 ± 0.058.

Q: With “NEDD4-like E3 ubiquitin-protein ligase WWP2 K484N, O00308” as the substance, how does the abundance fitness read?
A: Its abundance fitness is -0.056 ± 0.053.

Q: With “NEDD4-like E3 ubiquitin-protein ligase WWP2 K484P, O00308” as the substance, how does the abundance fitness read?
A: Its abundance fitness is -0.05 ± 0.034.

Q: With “NEDD4-like E3 ubiquitin-protein ligase WWP2 K484Q, O00308” as the substance, how does the abundance fitness read?
A: Its abundance fitness is -0.025 ± 0.068.

Q: Which abundance fitness does the source give for “NEDD4-like E3 ubiquitin-protein ligase WWP2 K484R, O00308” here?
A: Its abundance fitness is -0.062 ± 0.038.

Q: Which abundance fitness does the source give for “NEDD4-like E3 ubiquitin-protein ligase WWP2 K484S, O00308” here?
A: Its abundance fitness is -0.007 ± 0.037.

Q: For “NEDD4-like E3 ubiquitin-protein ligase WWP2 K484T, O00308”, which abundance fitness is on record?
A: The abundance fitness was -0.025 ± 0.039.

Q: With “NEDD4-like E3 ubiquitin-protein ligase WWP2 K484V, O00308” as the substance, how does the abundance fitness read?
A: Its abundance fitness is -0.143 ± 0.046.

Q: Which abundance fitness does the source give for “NEDD4-like E3 ubiquitin-protein ligase WWP2 K484W, O00308” here?
A: The abundance fitness was -0.101 ± 0.052.

Q: For “NEDD4-like E3 ubiquitin-protein ligase WWP2 K484Y, O00308”, which abundance fitness is on record?
A: Its abundance fitness is -0.071 ± 0.029.

Q: For “NEDD4-like E3 ubiquitin-protein ligase WWP2 L446A, O00308”, which abundance fitness is on record?
A: Its abundance fitness is -0.4 ± 0.037.

Q: With “NEDD4-like E3 ubiquitin-protein ligase WWP2 L446C, O00308” as the substance, how does the abundance fitness read?
A: Its abundance fitness is -0.065 ± 0.054.

Q: With “NEDD4-like E3 ubiquitin-protein ligase WWP2 L446D, O00308” as the substance, how does the abundance fitness read?
A: Its abundance fitness is -0.556 ± 0.048.

Q: For “NEDD4-like E3 ubiquitin-protein ligase WWP2 L446E, O00308”, which abundance fitness is on record?
A: Its abundance fitness is -0.576 ± 0.051.

Q: Which abundance fitness does the source give for “NEDD4-like E3 ubiquitin-protein ligase WWP2 L446F, O00308” here?
A: Its abundance fitness is -0.011 ± 0.07.

Q: With “NEDD4-like E3 ubiquitin-protein ligase WWP2 L446H, O00308” as the substance, how does the abundance fitness read?
A: The abundance fitness was -0.641 ± 0.12.

Q: Which abundance fitness does the source give for “NEDD4-like E3 ubiquitin-protein ligase WWP2 L446I, O00308” here?
A: Its abundance fitness is -0.214 ± 0.081.

Q: For “NEDD4-like E3 ubiquitin-protein ligase WWP2 L446K, O00308”, which abundance fitness is on record?
A: Its abundance fitness is -0.688 ± 0.094.

Q: Which abundance fitness does the source give for “NEDD4-like E3 ubiquitin-protein ligase WWP2 L446M, O00308” here?
A: The abundance fitness was -0.05 ± 0.03.

Q: Which abundance fitness does the source give for “NEDD4-like E3 ubiquitin-protein ligase WWP2 L446P, O00308” here?
A: Its abundance fitness is -0.394 ± 0.083.

Q: For “NEDD4-like E3 ubiquitin-protein ligase WWP2 L446Q, O00308”, which abundance fitness is on record?
A: Its abundance fitness is -0.491 ± 0.058.

Q: With “NEDD4-like E3 ubiquitin-protein ligase WWP2 L446R, O00308” as the substance, how does the abundance fitness read?
A: Its abundance fitness is -0.901 ± 0.054.

Q: Which abundance fitness does the source give for “NEDD4-like E3 ubiquitin-protein ligase WWP2 L446S, O00308” here?
A: The abundance fitness was -0.601 ± 0.054.

Q: Which abundance fitness does the source give for “NEDD4-like E3 ubiquitin-protein ligase WWP2 L446T, O00308” here?
A: Its abundance fitness is -0.384 ± 0.071.

Q: For “NEDD4-like E3 ubiquitin-protein ligase WWP2 L446V, O00308”, which abundance fitness is on record?
A: Its abundance fitness is -0.29 ± 0.052.

Q: For “NEDD4-like E3 ubiquitin-protein ligase WWP2 L446W, O00308”, which abundance fitness is on record?
A: The abundance fitness was -0.435 ± 0.065.

Q: For “NEDD4-like E3 ubiquitin-protein ligase WWP2 L446Y, O00308”, which abundance fitness is on record?
A: Its abundance fitness is -0.072 ± 0.07.

Q: For “NEDD4-like E3 ubiquitin-protein ligase WWP2 M440A, O00308”, which abundance fitness is on record?
A: Its abundance fitness is -0.137 ± 0.1.

Q: For “NEDD4-like E3 ubiquitin-protein ligase WWP2 M440C, O00308”, which abundance fitness is on record?
A: The abundance fitness was -0.491 ± 0.32.

Q: Which abundance fitness does the source give for “NEDD4-like E3 ubiquitin-protein ligase WWP2 M440D, O00308” here?
A: Its abundance fitness is -0.138 ± 0.29.

Q: With “NEDD4-like E3 ubiquitin-protein ligase WWP2 M440E, O00308” as the substance, how does the abundance fitness read?
A: The abundance fitness was -0.085 ± 0.11.

Q: For “NEDD4-like E3 ubiquitin-protein ligase WWP2 M440G, O00308”, which abundance fitness is on record?
A: Its abundance fitness is -0.284 ± 0.11.

Q: For “NEDD4-like E3 ubiquitin-protein ligase WWP2 M440I, O00308”, which abundance fitness is on record?
A: Its abundance fitness is -0.021 ± 0.076.

Q: Which abundance fitness does the source give for “NEDD4-like E3 ubiquitin-protein ligase WWP2 M440K, O00308” here?
A: The abundance fitness was 0.4 ± 0.12.

Q: Which abundance fitness does the source give for “NEDD4-like E3 ubiquitin-protein ligase WWP2 M440L, O00308” here?
A: The abundance fitness was -0.065 ± 0.1.

Q: With “NEDD4-like E3 ubiquitin-protein ligase WWP2 M440N, O00308” as the substance, how does the abundance fitness read?
A: The abundance fitness was 0.283 ± 0.12.

Q: With “NEDD4-like E3 ubiquitin-protein ligase WWP2 M440Q, O00308” as the substance, how does the abundance fitness read?
A: The abundance fitness was 0.206 ± 0.11.

Q: For “NEDD4-like E3 ubiquitin-protein ligase WWP2 M440R, O00308”, which abundance fitness is on record?
A: Its abundance fitness is -0.103 ± 0.087.
